The test system of assay [1] is Calu-6 cell line. The assay can be described thus: Cell associated (bound) fraction of [177Lu]Lu-labeled peptide in Calu-6 cells. The following applies: 1 hour, 37° C. The format is cell-based, Human. In outline:
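Peptide conjugate was labelled with [177Lu]LuCl3 in ammonium acetate pH ~5 at 80 °C for 17-20 min, with purity checked by RP-HPLC. Calu-6 suspensions (5 million cells/mL in 1% PBSA) were incubated with 0.8 μCi for 1 h at 37 °C. Cell pellets were gamma-counted after two cold PBS/BSA washes, giving the bound fraction against the unbound supernatant plus washes.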

In assay [2] the test system is Calu-6 cell line. Nature of the assay: Net internalization of [177Lu]Lu-labeled peptide in Calu-6 cells. The format is cell-based, Human. The following applies: 1 hour, 37° C., glycine pH 2.5 acid wash. In outline:
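Peptide conjugate labeled with [177Lu]LuCl3 at pH ~5, 80 °C, 17–20 min, and purity checked by RP-HPLC. B7-H3-expressing human Calu-6 lung cancer cells at 5 million cells/mL in 1% PBSA. Internalized fraction: counts left after two 3 min 50 mM glycine pH 2.5 washes and NaOH lysis, gamma counted against bound fraction.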

A further assay concerns the target T1, human 4lg B7-H3 (Homo sapiens, UniProt Q5ZPR3).
T1 sequence (Q5ZPR3 29-534): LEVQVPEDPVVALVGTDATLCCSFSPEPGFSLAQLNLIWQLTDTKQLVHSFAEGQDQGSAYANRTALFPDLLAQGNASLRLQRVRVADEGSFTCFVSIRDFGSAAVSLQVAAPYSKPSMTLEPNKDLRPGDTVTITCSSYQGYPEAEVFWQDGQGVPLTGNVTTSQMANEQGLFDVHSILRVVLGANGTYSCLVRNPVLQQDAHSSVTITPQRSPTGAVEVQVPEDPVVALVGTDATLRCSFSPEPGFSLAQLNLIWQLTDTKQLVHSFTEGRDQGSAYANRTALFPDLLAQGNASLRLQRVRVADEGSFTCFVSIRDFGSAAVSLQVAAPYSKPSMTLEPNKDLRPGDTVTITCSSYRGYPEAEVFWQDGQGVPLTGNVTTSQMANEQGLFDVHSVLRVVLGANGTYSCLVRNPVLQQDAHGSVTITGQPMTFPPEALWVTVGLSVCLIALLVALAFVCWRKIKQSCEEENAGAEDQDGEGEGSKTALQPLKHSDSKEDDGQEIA
The assay can be described thus: Affinity determination by surface plasmon resonance (SPR) to 4Ig B7-H3. The following applies: 4Ig B7-H3. On the technique in general: Surface plasmon resonance follows binding to a sensor surface in real time, without labels.

For assay [3], the target named is B7-H3 on Calu-6 cells (human) (UniProt Q5ZPR3). Nature of the assay: 177Lu-labelled peptide on Calu-6 cells, % cell associated fraction; B = 25<%<=50.

Like-named read-outs stand apart in the source and are kept apart here. Starred links: 1 amine or outer side, 2 acyl side, 3 side chain; linkers in the order of their positions; H or OH if unused. Positions of bridges follow the written chain, without caps; N, C: chain ends. Non-standard residues stand in square brackets, D forms with d. Residues, ends and D or L forms follow the SMILES beside them. Groups on a side chain read outwards from the residue. Primed or numbered codes have the meaning given here. *: point of attachment. R‑DOTAGA = O=C(O)CN1CCN(CC(=O)O)CCN([C@H](CCC(=O)*)C(=O)O)CCN(CC(=O)O)CC1; Ala(piperidin-4-yl) = O=C([C@H](CC1CCN([*:3])CC1)N[*:1])[*:2]; (2S,3S)βMePhe = C[C@@H](c1ccccc1)[C@H](N[*:1])C(=O)[*:2]; DOTA = O=C(O)CN1CCN(CC(=O)O)CCN(CC(=O)*)CCN(CC(=O)O)CC1; PipAla = piperidinyl-alanine residue (as named); Trp(5-F) = N[C@@H](Cc1c[nH]c2ccc(F)cc12)C(=O)O; hydroxyVal = hydroxy-valine residue (as named); PEG4′ = 4x 3-(2-aminoethoxy)propanoic acid; hCba = O=C([C@H](CCC1CCC1)N[*:1])[*:2]; γGlu = O=C(O)[C@H](CCC(=O)[*:2])N[*:1]; 1Nal = N[C@@H](Cc1cccc2ccccc12)C(=O)O; Ala(4-THP) = N[C@@H](CC1CCOCC1)C(=O)O; Pip(CH2CO2H)Ala = not defined here; Val(3-OH) = CC(C)(O)[C@H](N)C(=O)O; hCha = N[C@@H](CCC1CCCCC1)C(=O)O; 4Pal = N[C@@H](Cc1ccncc1)C(=O)O; Tle = CC(C)(C)[C@H](N)C(=O)O; hLeu = CC(C)CC[C@H](N)C(=O)O; Dab = NCC[C@H](N)C(=O)O; Ms = CS(=O)(=O)*; Sar = CNCC(=O)O

The Kd is the equilibrium constant for the complex coming apart.

On to `CC(=O)N[C@@H](CCC(C)C)C(=O)N[C@@H](Cc1ccc(O)cc1)C(=O)N[C@H]1CSSC[C@@H](C(=O)N[C@@H](Cc2c[nH]c3ccc(F)cc23)C(=O)N[C@@H](Cc2ccccc2)C(=O)N[C@H](C(=O)N[C@H](CCCCNC(=O)CC[C@H](NC(=O)CN2CCN(CC(=O)O)CCN(CC(=O)O)CCN(CC(=O)O)CC2)C(=O)O)C(=O)O)C(C)(C)O)NC(=O)[C@H](Cc2ccc(O)cc2)NC(=O)[C@H](C(C)C)NC(=O)[C@H](CC(=O)O)NC(=O)[C@H](CC2CCOCC2)NC(=O)[C@H](CC2CCNCC2)NC(=O)CNC(=O)[C@H](C(C)(C)C)NC1=O` [compound 440, Ac-hLeu-Y-C-Tbg-G-PipAla-ThpA-D-V-Y-C-5FW-F-hydroxyVal-dLys(gGlu-DOTA)-COOH] (Ac-[hLeu]YC[Tle]G[Ala(piperidin-4-yl)][Ala(4-THP)]DVYC[Trp(5-F)]F[Val(3-OH)][dK]([γGlu-DOTA])-OH; disulfide 3-11), for which, in the assay with Calu-6 cell line [1], the “% cell associated fraction” value is listed as “B (25<%≤50)”. For the same molecule, the “% net internalization” value in the assay on Calu-6 cell line [2] is listed as “A (%≤25)”. Moreover, the Kd on human 4lg B7-H3 (read-out: SPR KD—37° C., 37° C. flow cell temperature) is under 1 nM. Turning to `CC[C@H](C)[C@@H]1NC(=O)[C@@H](NC(=O)[C@H](Cc2ccc(O)cc2)NC(=O)[C@H](CCC(C)C)NC(C)=O)CSSC[C@@H](C(=O)N[C@@H](Cc2c[nH]c3ccc(F)cc23)C(=O)N[C@@H](Cc2ccccc2)C(=O)N[C@H](C(N)=O)C(C)(C)O)NC(=O)[C@H](Cc2ccc(O)cc2)NC(=O)[C@H](C(C)C)NC(=O)[C@H](CC(=O)O)NC(=O)[C@H](Cc2ccncc2)NC(=O)[C@H](CCCCNC(=O)CN2CCN(CC(=O)O)CCN(CC(=O)O)CCN(CC(=O)O)CC2)NC(=O)CNC1=O` [compound 230, Ac-hLeu-Y-C-Ile-G-Lys(DOTA)-4PyA-D-V-Y-C-5FW-F-hydroxyVal-CONH2] (Ac-[hLeu]YCIGK(DOTA)[4Pal]DVYC[Trp(5-F)]F[Val(3-OH)]-NH2; disulfide 3-11), the “% cell associated fraction” value with Calu-6 cell line [1] was “B (25<%≤50)”. Further, in the assay on Calu-6 cell line [2], the “% net internalization” value is on record as “A (%≤25)”. The Kd on human 4lg B7-H3 (SPR KD—25° C., 25° C. flow cell temperature) is under 1 nM.

In assay [3], Ac-[hLeu]YC[Tle]G[Dab][Ala(4-THP)]DVYC[Trp(5-F)]F[Val(3-OH)][dK](DOTA)-OH (disulfide 3-11 (inferred)) [Cpd 371] displayed a % cell associated fraction of 25 to 50%. Same read-out and setting: next, Ac-[hLeu]YC[Tle]G[Pip(PEG4-DOTA)Ala][Ala(4-THP)]DVYC[Trp(5-F)]F[Val(3-OH)][dA]-NH2 (disulfide 3-11 (inferred)) [Cpd 384]: 25 to 50%; Ac-[hLeu]YC[Tle]GK[Ala(4-THP)]DVYC[Trp(5-F)]F[Val(3-OH)][dK](DOTA)-NH2 (disulfide 3-11 (inferred)) [Cpd 366]: 25 to 50%. Still for that read-out and setting: the result for Ac-[hCha]YC[Tle]GK[Ala(4-THP)]DVYC[Trp(5-F)]F[Val(3-OH)][dK](DOTA)-OH (disulfide 3-11 (inferred)) [Cpd 368] reads 25 to 50%; that for Ac-[hLeu]YC[Tle]GK[Pip(PEG4-DOTA)Ala]DVYC[Trp(5-F)]F[Val(3-OH)]-NH2 (disulfide 3-11 (inferred)) [Cpd 383], 25 to 50%.

B1: Cpd 438 (peptide)
peptide: Ac-[hLeu]YC[Tle]G[PipAla][Ala(4-THP)]DVYCXF[hydroxyVal][dK](R‑DOTAGA)-OH
modifications: disulfide 3-11 (inferred); not fully specified (residue 12); printed as Ac-hLeu-Y-C-Tbg-G-PipAla-ThpA-D-V-Y-C-5FW-F-hydroxyVal-dLys(R-DOTAGA)-COOH, disulfide
The molecule B1 showed a % cell associated fraction in assay [3] of 25 to 50%. Consider Ac-[hLeu]YC[Tle]GK(DOTA)[Ala(4-THP)]DVYC[Trp(5-F)]F[Val(3-OH)]-NH2 (disulfide 3-11 (inferred)) [Cpd 338], for which, in assay [3], the % cell associated fraction was 25 to 50%.

In turn, Ac-[hLeu]YC[Tle][Sar]K[Ala(4-THP)]DVYC[Trp(5-F)]F[Val(3-OH)][dK](DOTA)-OH (disulfide 3-11 (inferred)) [Cpd 348] gave a % cell associated fraction in assay [3] of 25 to 50%.

B2: Cpd 440 (peptide)
peptide: Ac-[hLeu]YC[Tle]G[PipAla][Ala(4-THP)]DVYCXF[hydroxyVal][dK]([γGlu-DOTA])-OH
modifications: disulfide 3-11 (inferred); not fully specified (residue 12); printed as Ac-hLeu-Y-C-Tbg-G-PipAla-ThpA-D-V-Y-C-5FW-F-hydroxyVal-dLys(gGlu-DOTA)-COOH, disulfide
The molecule B2 showed a % cell associated fraction in assay [3] of 25 to 50%. On the same count and under the same terms, the result for Ac-[hLeu]YC[Tle]G[PipAla][Ala(4-THP)]DVYC[Trp(5-F)]F[hydroxyVal][dK]([PEG4′-DOTA])-OH (disulfide 3-11 (inferred)) [Cpd 465] reads 25 to 50%. Turning to Ac-[hCba]YC[Tle]GK[Ala(4-THP)]DVYC[Trp(5-F)]F[Val(3-OH)][dK](DOTA)-OH (disulfide 3-11 (inferred)) [Cpd 398], the % cell associated fraction in assay [3] lay within 25 to 50%.

In turn, Ac-[hLeu]YC[Tle]G[PipAla](CH2COOH)[PipAla]([PEG4′-DOTA])DVYC[Trp(5-F)][(2S,3S)βMePhe][Val(3-OH)][dE]-NH2 (disulfide 3-11 (inferred)) [Cpd 496] gave a % cell associated fraction in assay [3] of 25 to 50%.

B3: Cpd 318 (peptide)
peptide: Ac-[hLeu]YCIG[Pip(CH2CO2H)Ala][Ala(4-THP)]DVYC[Trp(5-F)]F[Val(3-OH)][dK](DOTA)-OH
modifications: disulfide 3-11 (inferred); reading uncertain; also: printed as Ac-hLeu-Y-C-Ile-G-[Pip(CH2CO2H)Ala]-ThpA-D-V-Y-C-5FW-F-hydroxyVal-dLys(DOTA)-COOH; disulfide
In turn, B3 returned a % cell associated fraction in assay [3] of 25 to 50%.

B4: Cpd 428 (peptide)
peptide: Ac-[hLeu]YC[Tle]G[PipAla][Ala(4-THP)]DVYCXF[hydroxyVal][dK]([Glu-DOTA])-OH
modifications: disulfide 3-11 (inferred); not fully specified (residue 12); printed as Ac-hLeu-Y-C-Tbg-G-PipAla-ThpA-D-V-Y-C-5FW-F-hydroxyVal-dLys(Glu-DOTA)-COOH, disulfide
The molecule B4 displayed a % cell associated fraction in assay [3] of 25 to 50%.

B5: Cpd 429 (peptide)
peptide: Ac-[hLeu]YC[Tle]G[PipAla][Ala(4-THP)]DVYCXF[hydroxyVal][dK]([dE-DOTA])-OH
modifications: disulfide 3-11 (inferred); not fully specified (residue 12); printed as Ac-hLeu-Y-C-Tbg-G-PipAla-ThpA-D-V-Y-C-5FW-F-hydroxyVal-dLys(dGlu-DOTA)-COOH, disulfide
Consider B5, for which the % cell associated fraction in assay [3] was in the range of 25 to 50%.

B6: Cpd 437 (peptide)
peptide: Ms-[hLeu]YC[Tle]G[PipAla][Ala(4-THP)]DVYCXF[hydroxyVal][dK](DOTA)-OH
modifications: disulfide 3-11 (inferred); not fully specified (residue 12); printed as MeSO2-hLeu-Y-C-Tbg-G-PipAla-ThpA-D-V-Y-C-5FW-F-hydroxyVal-dLys(DOTA)-COOH, disulfide
For B6, the % cell associated fraction in assay [3] lay within 25 to 50%.

On to Ac-[hLeu]YC[Tle]GK[Pip(PEG4-DOTA)Ala]DVYC[Trp(5-F)]F[Val(3-OH)][dE]-NH2 (disulfide 3-11 (inferred)) [Cpd 410], for which the % cell associated fraction in assay [3] lay in the range of 25 to 50%. Same read-out and setting: next, Ac-[hLeu]YC[Tle]G[PipAla][Ala(4-THP)]DVYC[1Nal]F[hydroxyVal][dK](DOTA)-OH (disulfide 3-11 (inferred)) [Cpd 436]: 25 to 50%.

These data come from patent US20250296959A1, “B7-H3 TARGETING PEPTIDES AND CONSTRUCTS THEREOF” (Mariana Oncology Inc., priority 2024, published 2025).
